The supplement of paper PMC9732359
± gives the uncertainty stated by the source.

Assay: protein stability index of a GFP-peptide fusion (yeast GPS) (PSI 1-4); higher = more stable; sorted into four equal gates, so the index is relative within each strain
How it was run: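 Sequencing reads from sorted gates were used to score each peptide. The library consisted of tiled 17-residue yeast protein peptides fused downstream of GFP on a Cherry-expressing plasmid, pooled and carried in yeast. Mid-log cultures in leucine-free medium were split into four equal gates by GFP/Cherry ratio, and each gate's plasmids were PCR-amplified and Illumina-sequenced. The protein stability index adds up, over all gates, the read frequency multiplied by the gate number.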

Row | Sequence | protein stability index (doa10∆) | protein stability index (pdr5∆) | protein stability index (san1∆) | protein stability index (ubr1∆)
1 | IFDGNYGESDIHFREHQ [YMR129W/POM152] | 3.26 ± 0.11 | 3.21 ± 0.21 | 3.58 ± 0.2 | 3.05 ± 0.15
2 | LQDLISVYGLDDISRQV [ROX3] | 2.69 ± 0.077 | 2.88 ± 0.086 | 2.84 ± 0.12 | 3.21 ± 0.051
3 | CAERVKIQQQQPGYADL [QCR6] | 3.29 ± 0.13 | 2.99 ± 0.19 | – | 3.09 ± 0.27
4 | SNSNNNGNKDSSFNFNK [SWI1] | 3.04 ± 0.053 | 3.17 ± 0.043 | 3.13 ± 0.04 | 3.16 ± 0.04
5 | IVTALLESDVNIALVSK [SRP54] | 3.22 ± 0.18 | 3.19 ± 0.088 | 3.24 ± 0.12 | 3.35 ± 0.12
6 | GHSLGEYAALASLADVM [FAS1] | 2.27 ± 0.061 | 2.29 ± 0.057 | 1.92 ± 0.078 | 2.6 ± 0.059
7 | AGTKITICIELKTVLHN [RGR1] | 1.18 ± 0.062 | 1.32 ± 0.07 | 1.39 ± 0.13 | 1.49 ± 0.09
8 | SEINEILARNDEEMAVL [SNF2] | 2.88 ± 0.18 | 2.64 ± 0.21 | 3 ± 0.17 | 3.16 ± 0.099
9 | PNSNVELAGGNASLTIE [SMC1] | 2.91 ± 0.091 | 3.06 ± 0.2 | 2.95 ± 0.071 | 3.04 ± 0.27
10 | DGMYSESKLSLETLFNR [FAS2] | 3.39 ± 0.075 | 3.25 ± 0.09 | 3.32 ± 0.046 | 3.33 ± 0.048
11 | KKGVRVTLDITTLTIMR [RPT4] | 2.48 ± 0.093 | 2.08 ± 0.11 | 2.23 ± 0.079 | 2.56 ± 0.082
12 | LAPARVRRRFARGMTSK [RPS15] | 2.99 ± 0.1 | 3.17 ± 0.094 | 3.11 ± 0.096 | 3.03 ± 0.082
13 | SDEERDDEDDEHNPTIV [AAR2] | 3.53 ± 0.086 | 3.32 ± 0.089 | 3.09 ± 0.071 | 3.31 ± 0.11
14 | RYLTLLSNEFTATNSKG [ECM29] | 2.89 ± 0.073 | 2.76 ± 0.064 | 2.61 ± 0.088 | 2.83 ± 0.052
15 | VTTNINWRSFNAKIIDA [SRP68] | 3.14 ± 0.081 | 3 ± 0.083 | 3.06 ± 0.059 | 3.18 ± 0.05
16 | DTPTSGKHNLTIWCVCD [BRR2] | 3.05 ± 0.11 | 3.22 ± 0.1 | 3.14 ± 0.075 | 3.08 ± 0.082
17 | VLKEKDVPAYNVTSFMP [SRB8] | 3.11 ± 0.064 | 3.01 ± 0.051 | 3.03 ± 0.051 | 3 ± 0.037
18 | LENMPHPWEQAKEVKVL [PRP8] | 2.7 ± 0.23 | 2.9 ± 0.17 | 3.09 ± 0.1 | 2.94 ± 0.093
19 | YLERTLDTFIKIDGNPD [PRE5] | 2.73 ± 0.098 | 3.2 ± 0.092 | 3.04 ± 0.055 | 3.3 ± 0.078
20 | LLLTIQLLIIEKEWENA [SRP72] | 1.42 ± 0.053 | 1.73 ± 0.059 | 2.07 ± 0.12 | 2.26 ± 0.045
21 | SVAVHFQYVIDESSGTS [SMC4] | 1.99 ± 0.081 | 1.6 ± 0.074 | 2.01 ± 0.074 | 1.77 ± 0.055
22 | IFALVFSSNERYFFWLQ [RPN13] | 1.25 ± 0.046 | 1.61 ± 0.07 | 1.65 ± 0.08 | 1.87 ± 0.046
23 | SYLEERERQVNEKLADL [RPC53] | 3.2 ± 0.14 | 3.42 ± 0.16 | 3.12 ± 0.17 | 3.19 ± 0.23
24 | NRGNKKRHRSSYYDNDL [YML031W/NDC1] | 3.02 ± 0.13 | 3.29 ± 0.095 | 3.24 ± 0.072 | 3 ± 0.11
25 | TGVVYNVTKSSVGVIIN [RPL21A] | 2.07 ± 0.09 | 2.6 ± 0.057 | 1.95 ± 0.095 | 2.18 ± 0.067
26 | LERTAIELKTDWVRFLA [RPN1] | 1.58 ± 0.13 | 1.49 ± 0.098 | 1.55 ± 0.11 | 1.17 ± 0.067
27 | YLTPPHECRLRDMTYSA [RET1] | 3.22 ± 0.11 | 3.02 ± 0.12 | 2.76 ± 0.16 | 3.14 ± 0.15
